In patent publication US20140087995A1 (published 2014):
Numbered stars: 1 amine (or outer) side, 2 acyl side, 3 side chain; on linkers, the order of the positions; unused ones are H or OH. Bridge positions count the residues as written; N and C are the ends. Side chains are listed from the residue outwards. Ends that are not written are not given here. * marks the point of attachment. C20 diacid = O=C(O)CCCCCCCCCCCCCCCCCCC(=O)*; γGlu = O=C(O)[C@H](CCC(=O)[*:2])N[*:1]; AEEA = NCCOCCOCC(=O)O

B1: N^ε1-[2-[2-[2-[[(4S)-4-carboxy-4-(19-carboxynonadecanoylamino)butanoyl]amino]ethoxy]ethoxy]acetyl]-[Arg17,Pro21,Pro27,Pro34,His35]-h-amylin (peptide)
peptide: K([AEEA-γGlu-C20 diacid])CNTATCATQRLANFLRHSSPNFGAIPSSTNVGPHTY-NH2
modifications: disulfide 2-7; N-terminus assumed
SMILES: CC[C@H](C)[C@H](NC(=O)[C@H](C)NC(=O)CNC(=O)[C@H](Cc1ccccc1)NC(=O)[C@H](CC(N)=O)NC(=O)[C@@H]1CCCN1C(=O)[C@H](CO)NC(=O)[C@H](CO)NC(=O)[C@H](Cc1c[nH]cn1)NC(=O)[C@H](CCCNC(=N)N)NC(=O)[C@H](CC(C)C)NC(=O)[C@H](Cc1ccccc1)NC(=O)[C@H](CC(N)=O)NC(=O)[C@H](C)NC(=O)[C@H](CC(C)C)NC(=O)[C@H](CCCNC(=N)N)NC(=O)[C@H](CCC(N)=O)NC(=O)[C@@H](NC(=O)[C@H](C)NC(=O)[C@@H]1CSSC[C@H](NC(=O)[C@@H](N)CCCCNC(=O)COCCOCCNC(=O)CC[C@H](NC(=O)CCCCCCCCCCCCCCCCCCC(=O)O)C(=O)O)C(=O)N[C@@H](CC(N)=O)C(=O)N[C@@H]([C@@H](C)O)C(=O)N[C@@H](C)C(=O)N[C@@H]([C@@H](C)O)C(=O)N1)[C@@H](C)O)C(=O)N1CCC[C@H]1C(=O)N[C@@H](CO)C(=O)N[C@@H](CO)C(=O)N[C@H](C(=O)N[C@@H](CC(N)=O)C(=O)N[C@H](C(=O)NCC(=O)N1CCC[C@H]1C(=O)N[C@@H](Cc1c[nH]cn1)C(=O)N[C@H](C(=O)N[C@@H](Cc1ccc(O)cc1)C(N)=O)[C@@H](C)O)C(C)C)[C@@H](C)O
notes: also called compound 58
B2: N^ε1-[2-[2-[2-[[(4S)-4-carboxy-4-(19-carboxynonadecanoylamino)butanoyl]amino]ethoxy]ethoxy]acetyl]-[His14,Arg17,Pro21,Pro27,His34]-h-amylin (peptide)
peptide: K([AEEA-γGlu-C20 diacid])CNTATCATQRLAHFLRHSSPNFGAIPSSTNVGHNTY-NH2
modifications: disulfide 2-7; N-terminus assumed
SMILES: CC[C@H](C)[C@H](NC(=O)[C@H](C)NC(=O)CNC(=O)[C@H](Cc1ccccc1)NC(=O)[C@H](CC(N)=O)NC(=O)[C@@H]1CCCN1C(=O)[C@H](CO)NC(=O)[C@H](CO)NC(=O)[C@H](Cc1c[nH]cn1)NC(=O)[C@H](CCCNC(=N)N)NC(=O)[C@H](CC(C)C)NC(=O)[C@H](Cc1ccccc1)NC(=O)[C@H](Cc1c[nH]cn1)NC(=O)[C@H](C)NC(=O)[C@H](CC(C)C)NC(=O)[C@H](CCCNC(=N)N)NC(=O)[C@H](CCC(N)=O)NC(=O)[C@@H](NC(=O)[C@H](C)NC(=O)[C@@H]1CSSC[C@H](NC(=O)[C@@H](N)CCCCNC(=O)COCCOCCNC(=O)CC[C@H](NC(=O)CCCCCCCCCCCCCCCCCCC(=O)O)C(=O)O)C(=O)N[C@@H](CC(N)=O)C(=O)N[C@@H]([C@@H](C)O)C(=O)N[C@@H](C)C(=O)N[C@@H]([C@@H](C)O)C(=O)N1)[C@@H](C)O)C(=O)N1CCC[C@H]1C(=O)N[C@@H](CO)C(=O)N[C@@H](CO)C(=O)N[C@H](C(=O)N[C@@H](CC(N)=O)C(=O)N[C@H](C(=O)NCC(=O)N[C@@H](Cc1c[nH]cn1)C(=O)N[C@@H](CC(N)=O)C(=O)N[C@H](C(=O)N[C@@H](Cc1ccc(O)cc1)C(N)=O)[C@@H](C)O)C(C)C)[C@@H](C)O
notes: also called compound 80
B3: N^ε1-[2-[2-[2-[[(4S)-4-carboxy-4-(19-carboxynonadecanoylamino)butanoyl]amino]ethoxy]ethoxy]acetyl]-[Gly14,Arg17,Pro21,Pro27,Pro31]-h-amylin (peptide)
peptide: K([AEEA-γGlu-C20 diacid])CNTATCATQRLAGFLRHSSPNFGAIPSSTPVGSNTY-NH2
modifications: disulfide 2-7; N-terminus assumed
SMILES: CC[C@H](C)[C@H](NC(=O)[C@H](C)NC(=O)CNC(=O)[C@H](Cc1ccccc1)NC(=O)[C@H](CC(N)=O)NC(=O)[C@@H]1CCCN1C(=O)[C@H](CO)NC(=O)[C@H](CO)NC(=O)[C@H](Cc1c[nH]cn1)NC(=O)[C@H](CCCNC(=N)N)NC(=O)[C@H](CC(C)C)NC(=O)[C@H](Cc1ccccc1)NC(=O)CNC(=O)[C@H](C)NC(=O)[C@H](CC(C)C)NC(=O)[C@H](CCCNC(=N)N)NC(=O)[C@H](CCC(N)=O)NC(=O)[C@@H](NC(=O)[C@H](C)NC(=O)[C@@H]1CSSC[C@H](NC(=O)[C@@H](N)CCCCNC(=O)COCCOCCNC(=O)CC[C@H](NC(=O)CCCCCCCCCCCCCCCCCCC(=O)O)C(=O)O)C(=O)N[C@@H](CC(N)=O)C(=O)N[C@@H]([C@@H](C)O)C(=O)N[C@@H](C)C(=O)N[C@@H]([C@@H](C)O)C(=O)N1)[C@@H](C)O)C(=O)N1CCC[C@H]1C(=O)N[C@@H](CO)C(=O)N[C@@H](CO)C(=O)N[C@H](C(=O)N1CCC[C@H]1C(=O)N[C@H](C(=O)NCC(=O)N[C@@H](CO)C(=O)N[C@@H](CC(N)=O)C(=O)N[C@H](C(=O)N[C@@H](Cc1ccc(O)cc1)C(N)=O)[C@@H](C)O)C(C)C)[C@@H](C)O
notes: also called compound 71
B4: N^ε1-[2-[2-[2-[[(4S)-4-carboxy-4-(19-carboxynonadecanoylamino)butanoyl]amino]ethoxy]ethoxy]acetyl]-[His14,Arg17,Pro21,Pro27,Arg34]-h-amylin (peptide)
peptide: K([AEEA-γGlu-C20 diacid])CNTATCATQRLAHFLRHSSPNFGAIPSSTNVGRNTY-NH2
modifications: disulfide 2-7; N-terminus assumed
SMILES: CC[C@H](C)[C@H](NC(=O)[C@H](C)NC(=O)CNC(=O)[C@H](Cc1ccccc1)NC(=O)[C@H](CC(N)=O)NC(=O)[C@@H]1CCCN1C(=O)[C@H](CO)NC(=O)[C@H](CO)NC(=O)[C@H](Cc1c[nH]cn1)NC(=O)[C@H](CCCNC(=N)N)NC(=O)[C@H](CC(C)C)NC(=O)[C@H](Cc1ccccc1)NC(=O)[C@H](Cc1c[nH]cn1)NC(=O)[C@H](C)NC(=O)[C@H](CC(C)C)NC(=O)[C@H](CCCNC(=N)N)NC(=O)[C@H](CCC(N)=O)NC(=O)[C@@H](NC(=O)[C@H](C)NC(=O)[C@@H]1CSSC[C@H](NC(=O)[C@@H](N)CCCCNC(=O)COCCOCCNC(=O)CC[C@H](NC(=O)CCCCCCCCCCCCCCCCCCC(=O)O)C(=O)O)C(=O)N[C@@H](CC(N)=O)C(=O)N[C@@H]([C@@H](C)O)C(=O)N[C@@H](C)C(=O)N[C@@H]([C@@H](C)O)C(=O)N1)[C@@H](C)O)C(=O)N1CCC[C@H]1C(=O)N[C@@H](CO)C(=O)N[C@@H](CO)C(=O)N[C@H](C(=O)N[C@@H](CC(N)=O)C(=O)N[C@H](C(=O)NCC(=O)N[C@@H](CCCNC(=N)N)C(=O)N[C@@H](CC(N)=O)C(=O)N[C@H](C(=O)N[C@@H](Cc1ccc(O)cc1)C(N)=O)[C@@H](C)O)C(C)C)[C@@H](C)O
notes: also called compound 84
B5: N^ε1-[2-[2-[2-[[(4S)-4-carboxy-4-(19-carboxynonadecanoylamino)butanoyl]amino]ethoxy]ethoxy]acetyl]-[Arg17,Pro21,Pro27,Pro34]-h-amylin (peptide)
peptide: K([AEEA-γGlu-C20 diacid])CNTATCATQRLANFLRHSSPNFGAIPSSTNVGPNTY-NH2
modifications: disulfide 2-7; N-terminus assumed
SMILES: CC[C@H](C)[C@H](NC(=O)[C@H](C)NC(=O)CNC(=O)[C@H](Cc1ccccc1)NC(=O)[C@H](CC(N)=O)NC(=O)[C@@H]1CCCN1C(=O)[C@H](CO)NC(=O)[C@H](CO)NC(=O)[C@H](Cc1c[nH]cn1)NC(=O)[C@H](CCCNC(=N)N)NC(=O)[C@H](CC(C)C)NC(=O)[C@H](Cc1ccccc1)NC(=O)[C@H](CC(N)=O)NC(=O)[C@H](C)NC(=O)[C@H](CC(C)C)NC(=O)[C@H](CCCNC(=N)N)NC(=O)[C@H](CCC(N)=O)NC(=O)[C@@H](NC(=O)[C@H](C)NC(=O)[C@@H]1CSSC[C@H](NC(=O)[C@@H](N)CCCCNC(=O)COCCOCCNC(=O)CC[C@H](NC(=O)CCCCCCCCCCCCCCCCCCC(=O)O)C(=O)O)C(=O)N[C@@H](CC(N)=O)C(=O)N[C@@H]([C@@H](C)O)C(=O)N[C@@H](C)C(=O)N[C@@H]([C@@H](C)O)C(=O)N1)[C@@H](C)O)C(=O)N1CCC[C@H]1C(=O)N[C@@H](CO)C(=O)N[C@@H](CO)C(=O)N[C@H](C(=O)N[C@@H](CC(N)=O)C(=O)N[C@H](C(=O)NCC(=O)N1CCC[C@H]1C(=O)N[C@@H](CC(N)=O)C(=O)N[C@H](C(=O)N[C@@H](Cc1ccc(O)cc1)C(N)=O)[C@@H](C)O)C(C)C)[C@@H](C)O
notes: also called compound 50
B6: N^ε1-[2-[2-[2-[[(4S)-4-carboxy-4-(19-carboxynonadecanoylamino)butanoyl]amino]ethoxy]ethoxy]acetyl]-[His14,Arg17,Pro21,Pro27,Pro31]-h-amylin (peptide)
peptide: K([AEEA-γGlu-C20 diacid])CNTATCATQRLAHFLRHSSPNFGAIPSSTPVGSNTY-NH2
modifications: disulfide 2-7; N-terminus assumed
SMILES: CC[C@H](C)[C@H](NC(=O)[C@H](C)NC(=O)CNC(=O)[C@H](Cc1ccccc1)NC(=O)[C@H](CC(N)=O)NC(=O)[C@@H]1CCCN1C(=O)[C@H](CO)NC(=O)[C@H](CO)NC(=O)[C@H](Cc1c[nH]cn1)NC(=O)[C@H](CCCNC(=N)N)NC(=O)[C@H](CC(C)C)NC(=O)[C@H](Cc1ccccc1)NC(=O)[C@H](Cc1c[nH]cn1)NC(=O)[C@H](C)NC(=O)[C@H](CC(C)C)NC(=O)[C@H](CCCNC(=N)N)NC(=O)[C@H](CCC(N)=O)NC(=O)[C@@H](NC(=O)[C@H](C)NC(=O)[C@@H]1CSSC[C@H](NC(=O)[C@@H](N)CCCCNC(=O)COCCOCCNC(=O)CC[C@H](NC(=O)CCCCCCCCCCCCCCCCCCC(=O)O)C(=O)O)C(=O)N[C@@H](CC(N)=O)C(=O)N[C@@H]([C@@H](C)O)C(=O)N[C@@H](C)C(=O)N[C@@H]([C@@H](C)O)C(=O)N1)[C@@H](C)O)C(=O)N1CCC[C@H]1C(=O)N[C@@H](CO)C(=O)N[C@@H](CO)C(=O)N[C@H](C(=O)N1CCC[C@H]1C(=O)N[C@H](C(=O)NCC(=O)N[C@@H](CO)C(=O)N[C@@H](CC(N)=O)C(=O)N[C@H](C(=O)N[C@@H](Cc1ccc(O)cc1)C(N)=O)[C@@H](C)O)C(C)C)[C@@H](C)O
notes: also called compound 61

Molecular target: T1, human calcitonin receptor (human, UniProt P30988 25-474)
T1 construct: whole, on cells; Assayed as cell membranes of BHK tk'ts 13 cells stably transfected with the human calcitonin receptor (Assay VII); also called hCTR; hCT
T1 sequence (looked up): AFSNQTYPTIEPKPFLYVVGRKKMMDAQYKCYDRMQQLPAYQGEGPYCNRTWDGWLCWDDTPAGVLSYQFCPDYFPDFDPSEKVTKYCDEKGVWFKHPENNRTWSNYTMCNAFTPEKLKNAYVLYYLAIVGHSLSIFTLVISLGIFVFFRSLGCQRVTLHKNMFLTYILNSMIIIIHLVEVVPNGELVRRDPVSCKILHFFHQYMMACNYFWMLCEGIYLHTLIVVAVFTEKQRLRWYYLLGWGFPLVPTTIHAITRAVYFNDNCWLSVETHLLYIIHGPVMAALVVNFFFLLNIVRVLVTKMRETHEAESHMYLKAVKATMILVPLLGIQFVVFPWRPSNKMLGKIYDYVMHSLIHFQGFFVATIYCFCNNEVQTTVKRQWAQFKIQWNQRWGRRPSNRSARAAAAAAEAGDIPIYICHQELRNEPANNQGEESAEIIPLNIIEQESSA
Assay: SPA competition vs 125I-calcitonin, membranes of BHK cells with human calcitonin receptor (Assay VII)
Method in brief: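 BHK hCTR membranes 35 ng/μL + SPA beads 0.05 mg/well; buffer 50 mM Hepes pH 7.4, 1 mM CaCl2, 5 mM MgCl₂, 0.1% OA, 0.02% Tween20. 120 min, 25° C., shaking. Scintillation count; IC50 by one-site binding competition.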

Binder	IC50
B1	9.63 nM
B2	19.8 nM
B3	1.53 nM
B4	88.9 nM
B5	1.38 nM
B6	8.11 nM

Molecular target: T1, human calcitonin receptor
Assay: IC50 at hCTR divided by IC50 at hAmylin-R (SPA competition assays V and VII)
Method in brief: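 Membranes (35 ng/μL final) + SPA beads, 50 mM Hepes pH 7.4 buffer with 1 mM CaCl2, 5 mM MgCl₂, 0.1% OA, 0.02% Tween20; 120 min, 25° C, shaking; centrifuged, counted; IC₅₀ by one-site binding competition.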

Binder	Ratio hCT/hAmylin binding
B1	109
B2	68.1
B3	32
B4	120
B5	36
B6	66.7
